Results reported in patent publication US20110053865A1.
Read-outs that look alike come from different tables or passages of the source.

B1: P23IL37D5-15GS-ALB1-15GS-20B11 (bispecific antibody, part only; not given: anti-albumin Nanobody and linkers, not shown: small tags and cut ends)
chain, part: EVQLVESGGGLVQPGGSLRLSCAASGFTLDYLAIGWFRQAPGKEREGVSCVSSSGQYTYYADSVKGRFTISRDNAESTVYLQMNSLKPEDTAVYYCATDPECYRVRGYYNGEYDYWGQGTQVTVSSEVQLVESGGGLVQAGGSLRLSCAVSGDTFSVYGMGWFRQAPGMEREFVAGISWNAGITAYTDTLKGRFTISRDRAKNTMYLQMNSLQPEDTAVYYCAADVTRHYIATRSKVDASMYDYWGQGTQVTVSS
B2: P23IL20B11-9GS-ALB1-9GS-37D5 (bispecific antibody, part only; not given: anti-albumin Nanobody, part only)
chain, part: EVQLVESGGGLVQAGGSLRLSCAVSGDTFSVYGMGWFRQAPGMEREFVAGISWNAGITAYTDTLKGRFTISRDRAKNTMYLQMNSLQPEDTAVYYCAADVTRHYIATRSKVDASMYDYWGQGTQVTVSSGGGGSGGGSGGGGSGGGSEVQLVESGGGLVQPGGSLRLSCAASGFTLDYLAIGWFRQAPGKEREGVSCVSSSGQYTYYADSVKGRFTISRDNAESTVYLQMNSLKPEDTAVYYCATDPECYRVRGYYNGEYDYWGQGTQVTVSS
B3: P23IL37D5-9GS-ALB1-9GS-20B11 (bispecific antibody, part only; not given: anti-albumin Nanobody, part only)
chain, part: EVQLVESGGGLVQPGGSLRLSCAASGFTLDYLAIGWFRQAPGKEREGVSCVSSSGQYTYYADSVKGRFTISRDNAESTVYLQMNSLKPEDTAVYYCATDPECYRVRGYYNGEYDYWGQGTQVTVSSGGGGSGGGSGGGGSGGGSEVQLVESGGGLVQAGGSLRLSCAVSGDTFSVYGMGWFRQAPGMEREFVAGISWNAGITAYTDTLKGRFTISRDRAKNTMYLQMNSLQPEDTAVYYCAADVTRHYIATRSKVDASMYDYWGQGTQVTVSS
B4: P23IL37D5-9GS-ALB1 (bispecific antibody, part only; not given: anti-albumin Nanobody, part only)
chain, part: EVQLVESGGGLVQPGGSLRLSCAASGFTLDYLAIGWFRQAPGKEREGVSCVSSSGQYTYYADSVKGRFTISRDNAESTVYLQMNSLKPEDTAVYYCATDPECYRVRGYYNGEYDYWGQGTQVTVSSGGGGSGGGS
B5: P23IL119A3V16-9GS-ALB8-9GS-81A12V4 (bispecific antibody, part only; not given: anti-albumin Nanobody, part only)
chain, part: EVQLLESGGGLVQPGGSLRLSCAASGRIFSLPASGNIFNLLTIAWYRQAPGKGRELVATINSGSRTYYADSVKGRFTISRDNSKKTLYLQMNSLRPEDTAVYYCQTSGSGSPNFWGQGTLVTVSSGGGGSGGGSGGGGSGGGSEVQLLESGGGLVQPGGSLRLSCAASGRTLSSYAMGWFRQAPGKGREFVSRISQGGTAIYYADSVKGRFTISRDNSKNTLYLQMNSLRPEDTAVYYCAKDPSPYYRGSAYLLSGSYDSWGQGTLVTVSS
B6: P23IL119A3-9GS-ALB1-9GS-81A12 (bispecific antibody, part only; not given: anti-albumin Nanobody, part only)
chain, part: EVQLVESGGGLVQAGGSLRLSCAASGRIFSLPASGNIFNLLTIAWHRQAPGMQRELVATINSGSRTNYADSVKGRFTISRDNAQKTVYLQMNNLKPEDTAVYYCQTSGSGSPNFWGQGTQVTVSSGGGGSGGGSGGGGSGGGSEVQLVESGGGLVQAGGSLRLSCAASGRTLSSYAMGWFRQAPGKEREFVARISQGGTAIYYADSVKGRFTISRDNAKNTVYLQMNSLKPEDTAVYYCAKDPSPYYRGSAYLLSGSYDSWGQGTQVTVSS
B7: P23IL119A3-9GS-ALB1-9GS-81G2 (bispecific antibody, part only; not given: anti-albumin Nanobody, part only)
chain, part: EVQLVESGGGLVQAGGSLRLSCAASGRIFSLPASGNIFNLLTIAWHRQAPGMQRELVATINSGSRTNYADSVKGRFTISRDNAQKTVYLQMNNLKPEDTAVYYCQTSGSGSPNFWGQGTQVTVSSGGGGSGGGSGGGGSGGGSEVQLVESGGGLVQPGGSLRLSCIASGLPFSTKSMGWFRQAPGKEREFVARISPGGTSRYYGDFVKGRFAISRDNAKNTTWLQMNSLKAEDTAVYYCASGERSTYIGSNYYRTNEYDYWGTGTQVTVSS
B8: P23IL-121A2-9GS-ALB1-9GS-119G7 (bispecific antibody, part only; not given: anti-albumin Nanobody, part only)
chain, part: EVQLVESGGGLVQAGGSLRLSCAASGSIFNFNYMGWFRQAPGKEREFVAAIRWSGSSTYYADSVKGRFTISRDDAKNTVALQMNSLKPEDTAIYYCALRKGIPYSTSDRVIKGVNDYDYWGQGTQVTVSSGGGGSGGGSGGGGSGGGSEVQLVESGGGLVQAGGSLTLSCAVSGLTFNNYAMGWFRQVPGKEREFVAAISRSGLRTFYSDSVKGRFTISRDSAKSTVYVQMNNLKPEDTAVYFCAADRRTYYSEGPSLTDTLRYDYWGQGTQVTVSS
B9: P23IL-121A2-9GS-ALB1-9GS-81G2 (bispecific antibody, part only; not given: anti-albumin Nanobody, part only)
chain, part: EVQLVESGGGLVQAGGSLRLSCAASGSIFNFNYMGWFRQAPGKEREFVAAIRWSGSSTYYADSVKGRFTISRDDAKNTVALQMNSLKPEDTAIYYCALRKGIPYSTSDRVIKGVNDYDYWGQGTQVTVSSGGGGSGGGSGGGGSGGGSEVQLVESGGGLVQPGGSLRLSCIASGLPFSTKSMGWFRQAPGKEREFVARISPGGTSRYYGDFVKGRFAISRDNAKNTTWLQMNSLKAEDTAVYYCASGERSTYIGSNYYRTNEYDYWGTGTQVTVSS

What was measured:
[1] = target: recombinant human IL-23 (p19/p40) (human) (UniProt Q9NPF7); assay: cell-based or functional assay
[2] = target: cynomolgus IL-23 (cynomolgus); assay: cell-based or functional assay
[3] = target: native human IL-23 (supernatant of SAC-stimulated THP-1 cells) (human) (UniProt Q9NPF7); assay: cell-based or functional assay
[4] = target: recombinant human IL-23 (p19/p40) (human) (UniProt Q9NPF7); assay: inhibition ELISA, hIL-23/hIL-23R-Fc
[5] = target: recombinant human IL-23 (p19/p40) (human) (UniProt Q9NPF7); assay: cell-based or functional assay; remark: listed apart in the source
[6] = target: cynomolgus IL-23 (cynomolgus); assay: cell-based or functional assay; remark: listed apart in the source

Sequence of recombinant human IL-23 (p19/p40) (human) (Q9NPF7 20-189 limits assumed, chain 1 of 2): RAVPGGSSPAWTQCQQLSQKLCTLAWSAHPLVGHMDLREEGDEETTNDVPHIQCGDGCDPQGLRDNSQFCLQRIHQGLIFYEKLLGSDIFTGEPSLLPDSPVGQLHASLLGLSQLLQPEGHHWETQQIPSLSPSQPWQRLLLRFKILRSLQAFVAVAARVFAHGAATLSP
Sequence of recombinant human IL-23 (p19/p40) (human) (P29460 23-328 limits assumed, chain 2 of 2, further chain): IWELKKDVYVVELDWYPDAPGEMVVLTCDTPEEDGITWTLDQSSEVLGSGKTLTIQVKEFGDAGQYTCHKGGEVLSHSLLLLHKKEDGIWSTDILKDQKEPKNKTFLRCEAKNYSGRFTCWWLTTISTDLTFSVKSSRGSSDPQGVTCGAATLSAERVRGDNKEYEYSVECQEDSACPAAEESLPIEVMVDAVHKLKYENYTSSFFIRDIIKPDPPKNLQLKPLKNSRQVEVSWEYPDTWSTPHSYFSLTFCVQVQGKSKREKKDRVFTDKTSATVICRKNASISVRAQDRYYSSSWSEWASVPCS
Sequence of native human IL-23 (supernatant of SAC-stimulated THP-1 cells) (human) (Q9NPF7 20-189, chain 1 of 2): as the sequence (Q9NPF7 20-189 limits assumed, chain 1 of 2) above
Sequence of native human IL-23 (supernatant of SAC-stimulated THP-1 cells) (human) (P29460 23-328, chain 2 of 2, further chain): as the sequence (P29460 23-328 limits assumed, chain 2 of 2, further chain) above

| Binder | IC50, splenocyte assay, 19 pM hIL-23 [1] [pM] | IC50, splenocyte assay, 3.8 pM cIL-23 [2] [pM] | other results |
| --- | --- | --- | --- |
| B1 | 5.77 | 5.75 |  |
| B2 | 4.47 | 8.59 |  |
| B3 |  |  | IC50, splenocyte assay, 19 pM native hIL-23 (Expt 3) [3]: 12 pM; IC50, BAF3 proliferation assay, 76 pM hIL-23 [1]: 19.5 pM |
| B4 | 29.8 | 419 | IC50 [4]: 37 pM; IC50, splenocyte assay, 19 pM native hIL-23 (Expt 3) [3]: 60 pM |
| B5 | 4.6 | 6.7 | IC50 [4]: 23 pM; IC50, BA/F3 proliferation assay, 76 pM hIL-23 [1]: 49 pM; IC50, splenocyte assay, 19 pM hIL-23 [5]: 3.6 pM; IC50, splenocyte assay, 3.8 pM cIL-23 [6]: 5.4 pM |
| B6 | 2.5 | 3.3 |  |
| B7 | 4 | 3 |  |
| B8 | 39 |  |  |
| B9 | 8 |  |  |
